Experimental data: patent US20260242485A1

Key:
[1] = target: human CD16B-NA1 expressed on CHO-K1 cells (human) (UniProt O75015); assay: flow cytometry, CHO-K1-hCD16B-NA1 cells, geometric mean
[2] = target: human CD32B expressed on CHO-K1 cells (human) (UniProt P31994); assay: flow cytometry, CHO-K1-hCD32B cells, geometric mean
Sequence of human CD32B expressed on CHO-K1 cells (human) (P31994 43-310): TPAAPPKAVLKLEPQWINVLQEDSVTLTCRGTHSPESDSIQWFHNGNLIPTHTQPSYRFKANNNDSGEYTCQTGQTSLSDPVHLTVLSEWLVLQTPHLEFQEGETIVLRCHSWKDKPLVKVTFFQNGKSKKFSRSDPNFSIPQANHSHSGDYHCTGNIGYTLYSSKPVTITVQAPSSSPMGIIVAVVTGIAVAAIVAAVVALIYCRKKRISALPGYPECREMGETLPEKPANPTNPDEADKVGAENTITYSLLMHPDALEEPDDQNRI

Sequence of human CD16B-NA1 expressed on CHO-K1 cells (human) (O75015 other isoform, or with tags, fused parts or gaps): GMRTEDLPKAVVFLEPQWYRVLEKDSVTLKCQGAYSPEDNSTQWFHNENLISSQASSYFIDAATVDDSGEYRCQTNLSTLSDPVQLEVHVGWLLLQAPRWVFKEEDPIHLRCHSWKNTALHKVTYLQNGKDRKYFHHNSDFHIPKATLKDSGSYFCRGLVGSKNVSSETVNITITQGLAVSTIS

3G8-mIgG2aLALAPG (antibody)
EC50 (read off the curve) [1]: 0.1 to 1 nM

Positive control (6G11) (antibody)
EC50 (read off the curve) [2]: 0.1 nM

Positive control (3G8) (antibody)
EC50 (read off the curve) [1]: 0.1 nM
